The supplement of paper PMC9732359
± gives the uncertainty stated by the source.

Experiment: protein stability index of a GFP-peptide fusion (yeast GPS) (PSI 1-4); higher = more stable; sorted into four equal gates, so the index is relative within each strain
Method in brief: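 Sequencing reads from sorted gates were used to score each peptide. The library consisted of tiled 17-residue yeast protein peptides fused downstream of GFP on a Cherry-expressing plasmid, pooled and carried in yeast. Mid-log cultures in leucine-free medium were split into four equal gates by GFP/Cherry ratio, and each gate's plasmids were PCR-amplified and Illumina-sequenced. The protein stability index adds up, over all gates, the read frequency multiplied by the gate number.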

| Sequence | protein stability index (doa10∆) | protein stability index (pdr5∆) | protein stability index (san1∆) | protein stability index (ubr1∆) |
| --- | --- | --- | --- | --- |
| DNETKAMLINLILRDFL [RPN3] | 2.55 ± 0.095 | 2.66 ± 0.087 | 2.58 ± 0.069 | 2.81 ± 0.075 |
| TPSTETAASVFKELCYE [PRE3] | 1.92 ± 0.048 | 2.1 ± 0.052 | 2.29 ± 0.062 | 1.84 ± 0.038 |
| LEQEYRLILLLNHRNKN [RMP1] | 1.28 ± 0.045 | 1.18 ± 0.05 | 1.19 ± 0.084 | 1.13 ± 0.046 |
| SGWGAVVYIIKKDEVVK [PUP3] | 3.25 ± 0.088 | 2.96 ± 0.072 | 3.33 ± 0.052 | 3.27 ± 0.057 |
| TSGKVELPKKLLNLPPF [SRB8] | 2.57 ± 0.27 | 3.1 ± 0.25 | 2.67 ± 0.26 | 2.55 ± 0.14 |
| ENNTDSARKELEQKIHE [SMC1] | 2.33 ± 0.1 | 2 ± 0.094 | 2.79 ± 0.086 | 3.01 ± 0.1 |
| DQYIQKQVQISHHLKAD [YGL172W/NUP49] | 2.78 ± 0.076 | 2.71 ± 0.092 | 2.6 ± 0.072 | 3.07 ± 0.057 |
| MKPSDNISTNTNIHEPQ [SSN2] | 3.19 ± 0.042 | 3.08 ± 0.051 | 3.1 ± 0.042 | 3.06 ± 0.052 |
| IQQLISQFLKRVHANLQ [SNF11] | 1.63 ± 0.051 | 1.61 ± 0.044 | 1.52 ± 0.068 | 1.54 ± 0.038 |
| IRIYFTEKDDNKTNNED [NUT1] | 2.82 ± 0.1 | 2.95 ± 0.071 | 2.84 ± 0.13 | 2.87 ± 0.074 |
| LLEGLNEKIEKRSDLTG [UBP6] | 2.89 ± 0.092 | 3.11 ± 0.063 | 3.18 ± 0.081 | 3.32 ± 0.098 |
| SKDLRSVWKPIAAIIGR [IRR1] | 2.56 ± 0.06 | 2.15 ± 0.032 | 2.75 ± 0.049 | 2.58 ± 0.038 |
| KAVKLRKSYKNQIADLS [ROX3] | 2.74 ± 0.1 | 2.85 ± 0.07 | 2.77 ± 0.095 | 2.95 ± 0.037 |
| YVPTRNTFNYDVKISND [RPN4] | 1.85 ± 0.068 | 2.3 ± 0.065 | 2.29 ± 0.078 | 2.25 ± 0.056 |
| LCTLNDSKGSLYSVKFA [YGL100W/SEH1] | 2.94 ± 0.13 | 2.84 ± 0.093 | 2.62 ± 0.058 | 2.49 ± 0.071 |
| IESDSILNLLNILTTHL [ECM29] | 2.39 ± 0.043 | 2.02 ± 0.046 | 1.75 ± 0.049 | 2.32 ± 0.049 |
| YIDEMYNHNDGGDGRDY [RRI1] | 2.47 ± 0.1 | 3.26 ± 0.1 | 3.3 ± 0.21 | 2.75 ± 0.13 |
| TMRKISSETDDDHSQVI [DSN1] | 2.91 ± 0.048 | 3.24 ± 0.064 | 3.1 ± 0.035 | 3.15 ± 0.055 |
| ETRNGKVKNQGADVTNT [YCS4] | 3.22 ± 0.1 | 3.45 ± 0.17 | 3.11 ± 0.072 | 3.18 ± 0.076 |
| DQKETKKGESEKDASGK [YOR098C/NUP1] | 3.45 ± 0.18 | 3.37 ± 0.15 | 3.49 ± 0.097 | 3.37 ± 0.1 |
| FMTKLLEVANDLQLLYV [IRR1] | 1.72 ± 0.11 | 1.98 ± 0.075 | 2.23 ± 0.12 | 1.24 ± 0.045 |
| DSTVNKSITLKGRNNES [YDL088C/ASM4] | 3.28 ± 0.09 | 3.38 ± 0.084 | 3.23 ± 0.058 | 3.21 ± 0.079 |
| SGNLPLNELSAKDKEIY [RPN13] | 3.21 ± 0.074 | 3.32 ± 0.083 | 3.27 ± 0.044 | 3.19 ± 0.067 |
| SVPTNSADAPNPNNVNV [RET1] | 3.24 ± 0.084 | 3.14 ± 0.081 | 3.26 ± 0.049 | 3.23 ± 0.058 |
| EKVFNAYPAAREQFLNA [FAS1] | 3.16 ± 0.084 | 3.19 ± 0.094 | 3.1 ± 0.077 | 3.22 ± 0.053 |
| LLGIFDDIFIPQNMLFE [RPC25] | 2.33 ± 0.15 | 2.7 ± 0.17 | 2.52 ± 0.095 | 2.69 ± 0.1 |
| FTPQEIEYCSAQPSVQS [FAS2] | 2.88 ± 0.27 |  |  |  |

| Sequence | protein stability index (doa10∆) | protein stability index (pdr5∆) | protein stability index (san1∆) | protein stability index (ubr1∆) |
| --- | --- | --- | --- | --- |
| NGAVGKREGKTRLLNIV [ISW2] | 3.27 ± 0.12 | 2.95 ± 0.11 | 3.03 ± 0.051 | 2.97 ± 0.088 |
| SFLDRKRAKEFITTLLK [SIN4] | 2.35 ± 0.048 | 2.21 ± 0.06 | 2.21 ± 0.061 | 2.08 ± 0.042 |
| TINEMMKHLGRSEGNPV [FAS2] | 2.5 ± 0.09 | 2.76 ± 0.064 | 2.53 ± 0.066 | 2.94 ± 0.072 |
| KNKKIEVYTKTIEVLDE [POP7] | 2.12 ± 0.11 | 2.78 ± 0.11 | 2.45 ± 0.15 | 2.61 ± 0.14 |
| DDTAANNGDKDHLKLVS [YIL149C/MLP2] | 3.25 ± 0.12 | 3.35 ± 0.11 | 2.81 ± 0.12 | 3.2 ± 0.087 |
| NSDIANLRTQVTQQKRS [SMC1] | 3.05 ± 0.074 | 3.1 ± 0.055 | 2.97 ± 0.062 | 3.08 ± 0.066 |
| KRELLKRYRLKESQLPR [RPB5] | 3.19 ± 0.2 | 3.29 ± 0.14 |  | 3.58 ± 0.14 |
| SMILEAISTDKINPFGF [RRI2] | 2.85 ± 0.076 | 3.01 ± 0.12 | 2.59 ± 0.12 | 2.92 ± 0.083 |
| NTAFGNSNPTSNVFGSN [YJL041W/NSP1] | 3.06 ± 0.13 | 3.6 ± 0.17 |  | 3.6 ± 0.16 |
| QYVTQIEQEKQEQQEQD [PRE6] | 2.23 ± 0.064 | 1.93 ± 0.057 | 2.85 ± 0.058 | 1.9 ± 0.045 |
| FSSLAISEINFLHESSF [CSI1] | 2.21 ± 0.038 | 2.56 ± 0.035 | 2.26 ± 0.047 | 2.53 ± 0.039 |
| IQKESTLHLVLRLRGGG [RPS31] | 2.64 ± 0.12 | 2.31 ± 0.067 | 1.75 ± 0.096 | 2.45 ± 0.066 |
| VDPFDSDEEESVLDEQE [SNU114] | 3.36 ± 0.095 | 3.5 ± 0.12 | 3.39 ± 0.15 | 3.36 ± 0.073 |
| FHSEPDRDENWIHVSCL [LIN1] | 3.16 ± 0.075 | 3.27 ± 0.054 | 3.07 ± 0.045 | 3.13 ± 0.039 |
| EDYAIVTKGGTVENPLR [PRP28] | 3.47 ± 0.16 | 2.98 ± 0.099 | 3.39 ± 0.055 | 3.44 ± 0.078 |
| KSHSTVSSSSRHHRKTE [ISW2] | 2.7 ± 0.055 | 2.69 ± 0.043 | 2.14 ± 0.052 | 2.88 ± 0.041 |
| TKLYFDVNEKIRFRIER [RPC25] | 2.97 ± 0.11 | 2.92 ± 0.097 | 2.81 ± 0.084 | 2.92 ± 0.17 |
| EVPEGVTVSIKSRIVKV [RPL9A] | 1.51 ± 0.064 | 1.86 ± 0.061 | 1.57 ± 0.097 | 2.26 ± 0.091 |
| MFLTRSEYDRGVSTFSP [PUP2] | 3.58 ± 0.21 |  |  | 3.34 ± 0.11 |
| KRFKRKDNAKISNNLAL [SRP68] | 2.31 ± 0.054 | 2.59 ± 0.067 | 2.26 ± 0.079 | 1.95 ± 0.045 |
| NHSLQHQNESSAASIPP [RPN4] | 2.94 ± 0.057 | 3 ± 0.058 | 2.83 ± 0.062 | 3.12 ± 0.037 |
| LNGILADEMGLGKTIQT [SNF2] | 2.91 ± 0.11 | 2.67 ± 0.1 | 3.29 ± 0.066 | 2.56 ± 0.095 |
| YEFPIEGIEIYDRKKLP [RPC11] | 3.16 ± 0.14 | 3.01 ± 0.094 | 1.91 ± 0.14 | 3.3 ± 0.17 |
| NKLSGILADEMGLGKTL [ISW2] | 3.1 ± 0.088 | 3.23 ± 0.13 | 3.15 ± 0.049 | 2.68 ± 0.096 |
| LNVVMKNLERLRGEYND [SMC4] | 3.26 ± 0.092 | 3.49 ± 0.11 | 3.37 ± 0.068 | 3.66 ± 0.13 |
| TSPLYMDPGAPLPVETP [SSN2] | 3.09 ± 0.12 | 2.82 ± 0.12 | 2.75 ± 0.17 | 2.81 ± 0.11 |
